The values that follow are results of earlier work, collected in paper PMC4628734.

For this data set, the target named is Cdc25C (Homo sapiens) (UniProt P30307).
UniProt P30307, sequence (P30307 whole entry, looked up): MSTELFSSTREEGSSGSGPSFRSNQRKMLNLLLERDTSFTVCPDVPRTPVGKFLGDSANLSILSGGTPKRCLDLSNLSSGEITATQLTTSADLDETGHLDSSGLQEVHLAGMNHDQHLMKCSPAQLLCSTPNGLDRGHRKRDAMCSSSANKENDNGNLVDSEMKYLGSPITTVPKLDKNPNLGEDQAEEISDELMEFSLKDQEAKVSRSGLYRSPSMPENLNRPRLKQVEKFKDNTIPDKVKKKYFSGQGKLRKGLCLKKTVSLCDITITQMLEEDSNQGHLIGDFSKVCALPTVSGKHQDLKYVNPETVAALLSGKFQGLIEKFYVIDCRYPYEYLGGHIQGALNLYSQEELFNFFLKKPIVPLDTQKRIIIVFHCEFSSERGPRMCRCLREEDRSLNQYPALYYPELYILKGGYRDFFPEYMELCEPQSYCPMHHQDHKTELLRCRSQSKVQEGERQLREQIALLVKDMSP

As to PLK-1 PBD (from UniProt P53350), the Kd is 1.8 µM.

The term Kd denotes the constant that tells how readily two partners part at equilibrium.
